Article PMC3359286 (2012)

Molecular target: methemoglobin (Homo sapiens, UniProt P69905)
Test: ELISA

Sequence of methemoglobin (P69905 2-142, chain 1 of 2): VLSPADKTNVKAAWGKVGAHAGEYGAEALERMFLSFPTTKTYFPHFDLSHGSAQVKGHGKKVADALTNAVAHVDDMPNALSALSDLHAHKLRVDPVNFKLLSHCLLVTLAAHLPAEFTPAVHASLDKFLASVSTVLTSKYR
Sequence of methemoglobin (chain, as listed by the source, chain 2 of 2): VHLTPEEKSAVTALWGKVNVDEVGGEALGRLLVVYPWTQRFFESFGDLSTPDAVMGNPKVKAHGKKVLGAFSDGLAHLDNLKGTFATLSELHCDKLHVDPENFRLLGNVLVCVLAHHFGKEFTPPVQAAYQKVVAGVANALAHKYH

B1: Shr (protein)
chain: QEPLVQSQLVTTVALTQDNRLLVEEIGPYASQSAGKEYYKHIEKIIVDNDVYEKSLEGERTFDINYQGIKINADLIKDGKHELTIVNKKDGDILITFIKKGDKVTFISAQKLGTTDHQDSLKKDVLSDKTVPQNQGTQKVVKSGKNTANLSLITKLSQEDGAILFPEIDRYSDNKQIKALTQQITKVTVNGTVYKDLISDSVKDTNGWVSNMTGLHLGTKAFKDGENTIVISSKGFEDVTITVTKKDGQIHFVSAKQKQHVTAEDRQSTKLDVTTLEKAIKEADAIIAKESNKDAVKDLAEKLQVIKDSYKEIKDSKLLADTHRLLKDTIESYQAGEVSINNLTEGTYTLNFKANKENSEESSMLQGAFDKRAKLVVKADGTMEISMLNTALGQFLIDFSIESKGTYPAAVRKQVGQKDINGSYIRSEFTMPIDDLDKLHKGAVLVSAMGGQESDLNHYDKYTKLDMTFSKTVTKGWSGYQVETDDKEKGVGTERLEKVLVKLGKDLDGDGKLSKTELEQIRGELRLDHYELTDISLLKHAKNITELHLDGNQITEIPKELFSQMKQLRFLNLRSNHLTYLDKDTFKSNAQLRELYLSSNFIHSLEGGLFQSLHHLEQLDLSKNRIGRLCDNPFEGLSRLTSLGFAENSLEEIPEKALEPLTSLNFIDLSQNNLALLPKTIEKLRALSTIVASRNHITRIDNISFKNLPKLSVLDLSTNEISNLPNGIFKQNNQLTKLDFFNNLLTQVEESVFPDVETLNLDVKFNQIKSVSPKVRALIGQHKLTPQKHIAKLEASLDGEKIKYHQAFSLLDLYYWEQKTNSAIDKELVSVEEYQQLLQEKGSDTVSLLNDMQVDWSIVIQLQKKASNGQYVTVDEKLLSNDPKDDLTGEFSLKDPGTYRIRKALITKKFATQKEHIYLTSNDILVAKGPHSHQKDLVENGLRALNQKQLRDGIYYLNASMLKTDLASESMSNKAINHRVTLVVKKGVSYLEVEFRGIKVGKMLGYLGELSYFVDGYQRDLAGKPVGRTKKAEVVSYFTDVTGLPLADRYGKNYPKVLRMKLIEQAKKDGLVPLQVFVPIMDAISKGSGLQTVFMRLDWASLTTEKAKVVKETNNPQENSHLTSTDQLKGPQNRQQEKTPTSPPSAATGIANLTDLLAKKATGQSTQETSKTDDTDKAEKLKQLVRDHQTSIEGKTAKDTKTKKSDKKHRSNQQSNGEESSSRYHLIAGLSSFMIVALGFIIGRKTLFK
modifications: holoShr (heme-bound), ferric hemoglobin (metHb)
B1 was tested, and the Kd was 50 nM.
